# Data reported in US20230125550A1 (ARCELLX, published 2023).
# T1: recombinant human CD123-Fc (human, UniProt P26951 19-305)
# T1 construct: not shown: Fc part of CD123-Fc
# T1 sequence: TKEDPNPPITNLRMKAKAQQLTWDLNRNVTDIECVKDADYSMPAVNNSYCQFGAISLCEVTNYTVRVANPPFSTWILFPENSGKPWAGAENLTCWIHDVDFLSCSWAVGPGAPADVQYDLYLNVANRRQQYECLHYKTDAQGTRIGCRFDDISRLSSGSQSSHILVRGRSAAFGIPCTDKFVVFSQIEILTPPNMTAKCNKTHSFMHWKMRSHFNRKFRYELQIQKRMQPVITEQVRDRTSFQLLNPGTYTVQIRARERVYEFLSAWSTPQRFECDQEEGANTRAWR
# T2: AFP p26 (human, UniProt P02771 381-609)
# T2 construct: The construct used is not described
# T2 sequence: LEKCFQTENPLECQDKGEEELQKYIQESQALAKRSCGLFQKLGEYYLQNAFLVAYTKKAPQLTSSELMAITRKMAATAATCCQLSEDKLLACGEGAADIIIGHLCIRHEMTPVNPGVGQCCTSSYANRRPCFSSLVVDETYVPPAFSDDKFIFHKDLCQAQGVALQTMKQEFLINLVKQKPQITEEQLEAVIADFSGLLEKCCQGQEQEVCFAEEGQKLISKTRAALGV
# Target: T1, recombinant human CD123-Fc
# Assay: phage ELISA, A450 target/A450 IgG1-Fc
# Method in brief: (§1)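 Using VCSM13 helper phage, phage were rescued in 96-well format from single phagemid colonies taken from panning output. Wells were coated with 1.3 microg/ml goat anti-human IgG1-Fc antibody and captured 5 nM recombinant human target or IgG1-Fc before 50 microl of 5×-diluted phage were added, with binding read at 450 nm via HRP-conjugated anti-M13 antibody. Each clone's ELISA ratio is its target-to-IgG1-Fc absorbance, averaged across all screened wells with that clone.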
row,Binder,ELISA_avg
1,SEQ ID NO 630 (designed binder) MGSWVEFYDRLEAIEIRLWALGGSEAELADFESFIAHFEDDLQAYKGKGNPEVEALMDEANAIVFELDAYRHN,4 ratio
2,SEQ ID NO 632 (designed binder) MGSWDEFDARLWAIEERLWALGGSEAELAEFEFMIAAFEDVLQEYKGKGNPEVEALMGEANAIVMELDAYRHN,4.3 ratio
3,SEQ ID NO 627 (designed binder) MGSWYEFEQRLGAIEERLWALGGSEAELAAFEDIIAYFEYQLQSYKGKGNPEVEALDEEAWAIDDELWAYRHN,10.6 ratio
4,SEQ ID NO 628 (designed binder) MGSWWEFEQRLDAIETRLWALGGSEAELAYFEHIIADFEDELQIYKGKGNPEVEALGWEAFAIDGELTAYRHN,4.7 ratio
5,SEQ ID NO 631 (designed binder) MGSWVEFWDRLDAIEERLWALGGSEAELAEFEFMIAMFEQHLQEYKGKGNPEVEALIPEAGAIDKELTAYRHN,10 ratio
6,SEQ ID NO 629 (designed binder) MGSWFEFPYRLEAIEERLYALGGSEAELAQFEQFIAWFEMDLQDYKGKGNPEVEALWFEANAIVEELDAYRHN,3.1 ratio

# Results, then the binder that gave them:
row,ELISA_avg,Binder
1,3.6 ratio,SEQ ID NO 633 (designed binder) MGSWYEFWRRLDAIEERLWALGGSEAELAMFETDIAGFEWMLQLYKGKGNPEVEALEHEAWAINSELDAYRHN
2,3.3 ratio,SEQ ID NO 634 (designed binder) MGSWHEFIWRLDAIEERLWALGGSEAELAWFETEIATFEAQLQDYKGKGNPEVEALEWEAIAIAWELDAYRHN

# Target: T2, AFP p26
# Assay: phage ELISA, A450 target/A450 IgG1-Fc
# Method in brief: as §1
row,Binder,ELISA_avg
1,SEQ ID NO 855 (designed binder) MGSWTHFKEDLAHIKDRLEALGGSEAELAAFELDIAWFEFMLQYYKGKGNPEVEALRKEAAAIRDELQAYRHN,30.4 ratio
2,SEQ ID NO 862 (designed binder) MGSWSIFKQDLADIKDSLEALGGSEAELAMFEMDIAWFEHTLQYYKGKGNPEVEALRKEAAAIRDELQAYRHN,16.6 ratio
3,SEQ ID NO 858 (designed binder) MGSWFTFKDDLAQIKNRLEALGGSEAELANFEMSIAWFEFMLQYYKGKGNPEVEALRKEAAAIRDELQAYRHN,30.8 ratio
4,SEQ ID NO 865 (designed binder) MGSWSVFKDDLAQIKDRLEALGGSEAELAQFELDIAWFEYVLQFYKGKGNPEVEALRKEAAAIRDELQAYRHN,30.3 ratio
5,SEQ ID NO 863 (designed binder) MGSWEIFKDDLASIKKVLEALGGSEAELALFESDIAWFELMLQYYKGKGNPEVEALRKEAAAIRDELQAYRHN,27.9 ratio
6,SEQ ID NO 857 (designed binder) MGSWYTFKGSLAEIKNRLEALGGSEAELAMFESDIAWFEFMLQFYKGKGNPEVEALRKEAAAIRDELQAYRHN,32.3 ratio
7,SEQ ID NO 849 (designed binder) MGSWVYFKHRLAEIKDQLEALGGSEAELAEFETDIAWFEWMLQYYKGKGNPEVEALRKEAAAIRDELQAYRHN,11.1 ratio
8,SEQ ID NO 859 (designed binder) MGSWVLFKQDLAMIKQRLEALGGSEAELAMFEYDIAWFEHMLQYYKGKGNPEVEALRKEAAAIRDELQAYRHN,29.7 ratio
9,SEQ ID NO 856 (designed binder) MGSWYYFKERLAAIKDRLEALGGSEAELAIFEADIAWFEFMLQYYKGKGNPEVEALRKEAAAIRDELQAYRHN,31.5 ratio
10,SEQ ID NO 866 (designed binder) MGSWAVFKDSLAHIKDVLEALGGSEAELALFEMDIAWFEYVLQDYKGKGNPEVEALRKEAAAIRDELQAYRHN,24.1 ratio
11,SEQ ID NO 869 (designed binder) MGSWMVFKQDLAEIKANLEALGGSEAELADFEFAIAWFEYELQWYKGKGNPEVEALRKEAAAIRDELQAYRHN,17.8 ratio
12,SEQ ID NO 874 (designed binder) MGSWNNFKSSLASIKQVLEALGGSEAELAVFELQIAHFERELQYYKGKGNPEVEALRKEAAAIRDELQAYRHN,24.1 ratio
13,SEQ ID NO 844 (designed binder) MGSWVRFKTELAYIKESLEALGGSEAELAMFESEIAIFEHSLQTYKGKGNPEVEALRKEAAAIRDELQAYRHN,20.5 ratio
14,SEQ ID NO 846 (designed binder) MGSWYWFKYELAEIKWHLEALGGSEAELAHFEHSIAVFESQLQQYKGKGNPEVEALRKEAAAIRDELQAYRHN,21.5 ratio
15,SEQ ID NO 847 (designed binder) MGSWWVFKKTLAEIKWTLEALGGSEAELAYFEAEIAFFEFILQQYKGKGNPEVEALRKEAAAIRDELQAYRHN,18.6 ratio
16,SEQ ID NO 872 (designed binder) MGSWVVFKSSLAQIKILLEALGGSEAELAIFEVKIAHFEQELQEYKGKGNPEVEALRKEAAAIRDELQAYRHN,8.6 ratio
17,SEQ ID NO 870 (designed binder) MGSWKNFKLELALIKSKLEALGGSEAELAQFEADIAFFEWSLQWYKGKGNPEVEALRKEAAAIRDELQAYRHN,20.6 ratio
18,SEQ ID NO 868 (designed binder) MGSWIHFKNDLAVIKDELEALGGSEAELARFEIMIAWFEDALQWYKGKGNPEVEALRKEAAAIRDELQAYRHN,17.9 ratio
19,SEQ ID NO 845 (designed binder) MGSWYLFKTELAAIKYRLEALGGSEAELASFEYEIAWFEHILQFYKGKGNPEVEALRKEAAAIRDELQAYRHN,20.1 ratio

# Further lines, results first:
row,ELISA_avg,Binder
1,16.7 ratio,SEQ ID NO 850 (designed binder) MGSWIIFKTDLARIKNYLEALGGSEAELATFERDIAWFEFMLQIYKGKGNPEVEALRKEAAAIRDELQAYRHN
2,14.2 ratio,SEQ ID NO 854 (designed binder) MGSWFVFKEDLAGIKFILEALGGSEAELAMFETDIAWFEYMLQYYKGKGNPEVEALRKEAAAIRDELQAYRHN
3,18.9 ratio,SEQ ID NO 851 (designed binder) MGSWMHFKQDLAEIKGYLEALGGSEAELAIFEMDIAWFEYMLQYYKGKGNPEVEALRKEAAAIRDELQAYRHN
4,25.6 ratio,SEQ ID NO 864 (designed binder) MGSWSIFKDDLAVIKERLEALGGSEAELAHFEQDIAWFEHLLQYYKGKGNPEVEALRKEAAAIRDELQAYRHN
5,22.1 ratio,SEQ ID NO 848 (designed binder) MGSWVYFKDHLAEIKSQLEALGGSEAELALFEYDIAWFEFILQYYKGKGNPEVEALRKEAAAIRDELQAYRHN
6,11.6 ratio,SEQ ID NO 861 (designed binder) MGSWSYFKEDLANIKSSLEALGGSEAELAWFESSIAWFEHTLQYYKGKGNPEVEALRKEAAAIRDELQAYRHN
7,17.4 ratio,SEQ ID NO 852 (designed binder) MGSWQIFKQDLAAIKDYLEALGGSEAELAIFEFDIAWFEHMLQWYKGKGNPEVEALRKEAAAIRDELQAYRHN
8,18.6 ratio,SEQ ID NO 853 (designed binder) MGSWLAFKEDLAHIKSILEALGGSEAELAEFEHDIAWFEYMLQYYKGKGNPEVEALRKEAAAIRDELQAYRHN
9,30.4 ratio,SEQ ID NO 860 (designed binder) MGSWVEFKRDLANIKQRLEALGGSEAELAQFEMQIAWFEHTLQYYKGKGNPEVEALRKEAAAIRDELQAYRHN
10,29.9 ratio,SEQ ID NO 867 (designed binder) MGSWIAFKDHLAIIKQRLEALGGSEAELARFEFEIAWFEWMLQYYKGKGNPEVEALRKEAAAIRDELQAYRHN
11,25.6 ratio,SEQ ID NO 871 (designed binder) MGSWHSFKQDLAYIKYLLEALGGSEAELAQFEELIAFFEYYLQTYKGKGNPEVEALRKEAAAIRDELQAYRHN
12,15.6 ratio,SEQ ID NO 873 (designed binder) MGSWDQFKNSLASIKRVLEALGGSEAELAIFEVKIAHFEHFLQQYKGKGNPEVEALRKEAAAIRDELQAYRHN
